In PMC4586260 (Biochemistry, 2008):
Where “and” joins values, the source holds several entries; their conditions need not be identical. Equal entries are not always repeated.

B1: WRN C-terminal fragment WRN(1072-1432) (domain or fragment, human, UniProt Q14191 1072-1432, looked up)
chain: KKLLLPSSKTVSSGTKEHCYNQVPVELSTEKKSNLEKLYSYKPCDKISSGSNISKKSIMVQSPEKAYSSSQPVISAQEQETQIVLYGKLVEARQKHANKMDVPPAILATNKILVDMAKMRPTTVENVKRIDGVSEGKAAMLAPLLEVIKHFCQTNSVQTDLFSSTKPQEEQKTSLVAKNKICTLSQSMAITYSLFQEKKMPLKSIAESRILPLMTIGMHLSQAVKAGCPLDLERAGLTPEVQKIIADVIRNPPVNSDMSKISLIRMLVPENIDTYLIHMAIEILKHGPDSGLQPSCDVNKRRCFPGSEEICSSSKRSKEEVGINTETSSAERKRRLPVWFAKGSDTSKKLMDKTKRGGLFS
B2: WRN fragment WRN(1151-1432) (domain or fragment, human, UniProt Q14191 1151-1432, looked up)
chain: ETQIVLYGKLVEARQKHANKMDVPPAILATNKILVDMAKMRPTTVENVKRIDGVSEGKAAMLAPLLEVIKHFCQTNSVQTDLFSSTKPQEEQKTSLVAKNKICTLSQSMAITYSLFQEKKMPLKSIAESRILPLMTIGMHLSQAVKAGCPLDLERAGLTPEVQKIIADVIRNPPVNSDMSKISLIRMLVPENIDTYLIHMAIEILKHGPDSGLQPSCDVNKRRCFPGSEEICSSSKRSKEEVGINTETSSAERKRRLPVWFAKGSDTSKKLMDKTKRGGLFS

Molecular target: the molecule itself
Experiment: SEC

| Protein | stoichiometry N |
| --- | --- |
| B1 | 6 and 3 |
| B2 | 3 |
